Laboratory results as given in article PMC3656841.

Biological target: T1, Bacillus subtilis DNA Ligase D (BsuLigD) (B. subtilis) (UniProt O34398)
T1 sequence: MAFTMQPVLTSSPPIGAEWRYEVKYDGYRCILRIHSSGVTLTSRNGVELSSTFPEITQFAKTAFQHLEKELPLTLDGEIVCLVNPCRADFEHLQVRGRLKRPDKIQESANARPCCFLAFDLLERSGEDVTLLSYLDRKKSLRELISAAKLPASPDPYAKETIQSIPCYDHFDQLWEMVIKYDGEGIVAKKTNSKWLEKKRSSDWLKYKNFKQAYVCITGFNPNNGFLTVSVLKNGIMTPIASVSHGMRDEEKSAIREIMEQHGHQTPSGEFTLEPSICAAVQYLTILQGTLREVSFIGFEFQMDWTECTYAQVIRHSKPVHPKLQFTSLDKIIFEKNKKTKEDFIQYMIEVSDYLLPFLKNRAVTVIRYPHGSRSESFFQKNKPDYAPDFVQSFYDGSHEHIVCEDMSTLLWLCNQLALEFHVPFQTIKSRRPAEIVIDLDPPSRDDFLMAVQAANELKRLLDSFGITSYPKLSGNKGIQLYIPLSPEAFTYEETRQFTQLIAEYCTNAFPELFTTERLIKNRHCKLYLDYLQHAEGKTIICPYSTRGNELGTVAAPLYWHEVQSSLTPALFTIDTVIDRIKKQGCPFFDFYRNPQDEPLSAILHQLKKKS

B1: Bacillus subtilis Ku (BsuKu) (natural protein)
chain: MNRTPSLHTKEKKGFIDMHTMWKGSISFGLVNIPIKLYAATEDKDIKLRSLHKEDHAPIKYEKVCTNCEKTLSPDEIVKGYEYVKGKYVVLTDEDLKSLKQEHEEKAVEIVDFVQLQEIDPIYFNRSYFVGPGDNGTKAYTLLREALRSTGKIGIANMTIRSKQQLAILRVYENCIVMESIHYPDEVRSAAQVPGVPDQSNVNDKELQTAITLIDELTAKFEPEKYEDTYRQALLQRVNDKLENKETAVTPDKAPPREDVIDLVSALQASIDRTRRPNRETPAAAPAQAAEPKGAGDKKQKTTRKKASGTS
B1 gave a primer usage by BsuLigD (percentage of extended primers against reaction time) on a gapped molecule, 10 ng BsuLigD, 10 µM NTPs, without or with 40 ng of BsuKu of 3 fold.
